Experimental data published in paper doi:10.1101/2023.12.20.572361.

B1: dystroglycan (mDag1): 4X mut. (Pax7-Cre or AAV-CMV-Cre) (protein)
parent chain: MSVDNWLLHPLWGQTFLLLLSVAVAQAHWPSEPSEAVRDWKNQLEASMHSVLSDFQEAVPTVVGIPDGTAVVGRSFRVSIPTDLIASSGEIIKVSAAGKEALPSWLHWDPHSHILEGLPLDTDKGVHYISVSAARLGANGSHVPQTSSVFSIEVYPEDHNEPQSVRAASSDPGEVVPSACAADEPVTVLTVILDADLTKMTPKQRIDLLNRMQSFSEVELHNMKLVPVVNNRLFDMSAFMAGPGNAKKVVENGALLSWKLGCSLNQNSVPDIRGVETPAREGAMSAQLGYPVVGWHIANKKPTLPKRLRRQIHATPTPVTAIGPPTTAIQEPPSRIVPTPTSPAIAPPTETMAPPVRDPVPGKPTVTIRTRGAIIQTPTLGPIQPTRVSEAGTTVPGQIRPTLTIPGYVEPTAVITPPTTTTKKPRVSTPKPATPSTDSSTTTTRRPTKKPRTPRPVPRVTTKAPITRLETASPPTRIRTTTSGVPRGGEPNQRPELKNHIDRVDAWVGTYFEVKIPSDTFYDNEDTTTDKLKLTLKLREQQLVGEKSWVQFNSNSQLMYGLPDSSHVGKHEYFMHATDKGGLSAVDAFEIHVHKRPQGDKAPARFKARLAGDPAPVVNDIHKKIALVKKLAFAFGDRNCSSITLQNITRGSIVVEWTNNTLPLEPCPKEQIIGLSRRIADENGKPRPAFSNALEPDFKALSIAVTGSGSCRHLQFIPVAPPSPGSSAAPATEVPDRDPEKSSEDDVYLHTVIPAVVVAAILLIAGIIAMICYRKKRKGKLTLEDQATFIKKGVPIIFADELDDSKPPPSSSMPLILQEEKAPLPPPEYPNQSMPETTPLNQDTVGEYTPLRDEDPNAPPYQPPPPFTAPMEGKGSRPKNMTPYRSPPPYVPP
B2: dystroglycan (mDag1): Pax7-Cre 4X mutant (protein)
parent chain: MSVDNWLLHPLWGQTFLLLLSVAVAQAHWPSEPSEAVRDWKNQLEASMHSVLSDFQEAVPTVVGIPDGTAVVGRSFRVSIPTDLIASSGEIIKVSAAGKEALPSWLHWDPHSHILEGLPLDTDKGVHYISVSAARLGANGSHVPQTSSVFSIEVYPEDHNEPQSVRAASSDPGEVVPSACAADEPVTVLTVILDADLTKMTPKQRIDLLNRMQSFSEVELHNMKLVPVVNNRLFDMSAFMAGPGNAKKVVENGALLSWKLGCSLNQNSVPDIRGVETPAREGAMSAQLGYPVVGWHIANKKPTLPKRLRRQIHATPTPVTAIGPPTTAIQEPPSRIVPTPTSPAIAPPTETMAPPVRDPVPGKPTVTIRTRGAIIQTPTLGPIQPTRVSEAGTTVPGQIRPTLTIPGYVEPTAVITPPTTTTKKPRVSTPKPATPSTDSSTTTTRRPTKKPRTPRPVPRVTTKAPITRLETASPPTRIRTTTSGVPRGGEPNQRPELKNHIDRVDAWVGTYFEVKIPSDTFYDNEDTTTDKLKLTLKLREQQLVGEKSWVQFNSNSQLMYGLPDSSHVGKHEYFMHATDKGGLSAVDAFEIHVHKRPQGDKAPARFKARLAGDPAPVVNDIHKKIALVKKLAFAFGDRNCSSITLQNITRGSIVVEWTNNTLPLEPCPKEQIIGLSRRIADENGKPRPAFSNALEPDFKALSIAVTGSGSCRHLQFIPVAPPSPGSSAAPATEVPDRDPEKSSEDDVYLHTVIPAVVVAAILLIAGIIAMICYRKKRKGKLTLEDQATFIKKGVPIIFADELDDSKPPPSSSMPLILQEEKAPLPPPEYPNQSMPETTPLNQDTVGEYTPLRDEDPNAPPYQPPPPFTAPMEGKGSRPKNMTPYRSPPPYVPP

Experiments:
[1] = forelimb grip strength test; conditions: glycan lost; control: WT mice
[2] = EDL isometric tetanic and specific force in vitro; conditions: glycan lost; control: WT mice
[3] = EDL eccentric contraction protocol; conditions: glycan lost; control: WT mice
[4] = glycan lost; control: WT mice

| Protein | other: grip strength [1] | other: muscle contractile force [2] | other: susceptibility to contraction-induced injury [3] | other: neuromuscular junction integrity [4] |
| --- | --- | --- | --- | --- |
| B1 | decreases | decreases | increases |  |
| B2 |  |  |  | decreases |
